Experimental data published in patent US20240029824A1 (University of Washington, published 2024).
Blank lines part the entries; values can stand above or below the binder they belong to.

Key:
DHT04 chain C = biological target: T1, DHT04 chain C; experiment: co-expression, IMAC, SEC, native MS; chains of one ABC heterotrimer
T1 chain: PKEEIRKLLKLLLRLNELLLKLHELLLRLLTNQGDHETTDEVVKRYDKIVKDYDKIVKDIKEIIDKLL
From the text: (§1) Genes encoding 85 heterotrimers in a tricistronic expression vector were obtained, and the proteins were expressed in E. coli and purified via IMAC with only one chain having the 6×His-tag. Nine of the designs (FIG. 3a) had monodisperse SEC peaks (FIG. 3b), were almost exclusively ABC by nMS, and had good SAXS fits to the design models (Table 7). […] Eight of the designs are parallel heterotrimers, while DHTO9 is an antiparallel heterotrimer. […] For 3 other designs, only the ABC heterotrimer was determined to form by nMS (when the respective SEC fraction was analyzed) but the heterotrimer SEC peak was preceded by soluble aggregate that would make building with these constructs difficult downstream. We explored the dependence of cooperativity on connectivity between the three chains by changing the positions of the loops across different helices in DHT03, while keeping the rest of the interface intact. […] The ability to sustain alternate loop closures increases the number of heteromeric building blocks available for future nanostructure assembly applications and may enable rigid fusion of functional domains to the different termini available.
(§2) Samples were analyzed by online buffer exchange native mass spectrometry (nMS) to evaluate sample purity and accurately determine oligomeric states⁴². Multiple instruments were used as the analyses were carried out over the duration of the protein design process. The mass spectrometers used for detection were a Q Exactive™ UHMR modified with a surface-induced dissociation device and an Exactive™ Plus EMR modified with a selection quadrupole and a surface-induced dissociation device (Thermo Fisher Scientific)⁴³. The liquid chromatography systems used for the buffer exchange include a Vanquish™ Duo UHPLC and a Dionex™ Ultimate 3000 HPLC (Thermo Fisher Scientific). A heated electrospray ionization source (HESI-II, Thermo Fisher Scientific) with a spray voltage of ˜4 kV was used for ionization.

DHT04 chain B = biological target: T2, DHT04 chain B; experiment: as above
T2 chain: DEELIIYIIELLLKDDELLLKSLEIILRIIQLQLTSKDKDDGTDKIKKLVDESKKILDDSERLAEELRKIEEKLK
From the text: as §1, §2

[1] = biological target: T3, DHT03 chain C (SEQ ID NO: 59); experiment: chains mixed and annealed, SEC, negative stain EM; A4B4C4 ring
T3 chain: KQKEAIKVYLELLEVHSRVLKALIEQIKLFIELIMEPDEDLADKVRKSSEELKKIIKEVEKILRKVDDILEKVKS

C4-DHT03-02 chain B = biological target: T4, C4-DHT03-02 chain B; experiment: as above
T4 construct: four copies in the A4B4C4 ring
T4 chain: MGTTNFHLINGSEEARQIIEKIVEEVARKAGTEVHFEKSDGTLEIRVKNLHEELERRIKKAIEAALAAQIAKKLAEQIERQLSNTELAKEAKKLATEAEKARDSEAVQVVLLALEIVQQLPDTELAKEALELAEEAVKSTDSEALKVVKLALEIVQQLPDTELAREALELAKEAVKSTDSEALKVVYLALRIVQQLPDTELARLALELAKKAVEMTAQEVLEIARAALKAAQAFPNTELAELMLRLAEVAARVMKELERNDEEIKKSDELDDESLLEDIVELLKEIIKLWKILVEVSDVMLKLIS

[2] = biological target: T5, DHT03_variant_AB-1 chain B; experiment: native MS; loop-connectivity variant of DHT03, AB heterodimer
T5 chain: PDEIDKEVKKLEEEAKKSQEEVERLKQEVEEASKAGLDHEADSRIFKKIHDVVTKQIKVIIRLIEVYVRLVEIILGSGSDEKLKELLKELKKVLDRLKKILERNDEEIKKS

DHT09 chain B = biological target: T6, DHT09 chain B; experiment: co-expression, IMAC, SEC, native MS; chains of one ABC heterotrimer
T6 chain: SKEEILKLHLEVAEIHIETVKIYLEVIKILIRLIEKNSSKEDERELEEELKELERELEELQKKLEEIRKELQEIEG
From the text: as §1, §2

DHT09 chain C = biological target: T7, DHT09 chain C; experiment: as above
T7 chain: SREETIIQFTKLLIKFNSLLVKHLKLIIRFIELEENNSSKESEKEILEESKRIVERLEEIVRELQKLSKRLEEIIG
From the text: as §1, §2

DHT07 chain B = biological target: T8, DHT07 chain B; experiment: as above
T8 chain: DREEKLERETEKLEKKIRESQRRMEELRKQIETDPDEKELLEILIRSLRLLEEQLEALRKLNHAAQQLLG
From the text: as §1, §2

DHT07 chain C = biological target: T9, DHT07 chain C; experiment: as above
T9 chain: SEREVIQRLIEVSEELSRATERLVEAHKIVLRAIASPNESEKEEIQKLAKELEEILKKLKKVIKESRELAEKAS
From the text: as §1, §2

DHT02 chain C = biological target: T10, DHT02 chain C; experiment: as above
T10 chain: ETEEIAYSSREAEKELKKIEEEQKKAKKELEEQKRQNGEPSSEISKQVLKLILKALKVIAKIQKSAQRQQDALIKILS
From the text: as §1, §2

DHT02 chain B = biological target: T11, DHT02 chain B; experiment: as above
T11 chain: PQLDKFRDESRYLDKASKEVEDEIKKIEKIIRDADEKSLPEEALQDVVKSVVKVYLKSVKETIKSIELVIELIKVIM
From the text: as §1, §2

DHT06 chain B = biological target: T12, DHT06 chain B; experiment: as above
T12 chain: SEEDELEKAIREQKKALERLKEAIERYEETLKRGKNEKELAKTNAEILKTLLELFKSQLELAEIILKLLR
From the text: as §1, §2

DHT06 chain C = biological target: T13, DHT06 chain C; experiment: as above
T13 chain: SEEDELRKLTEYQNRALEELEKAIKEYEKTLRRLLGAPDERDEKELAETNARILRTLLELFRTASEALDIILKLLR
From the text: as §1, §2

[3] = biological target: T14, DHT03_variant_AB-4 chain B; experiment: native MS; loop-connectivity variant of DHT03, AB heterodimer
T14 chain: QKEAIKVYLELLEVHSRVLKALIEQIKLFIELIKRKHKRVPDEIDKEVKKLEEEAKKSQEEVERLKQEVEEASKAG

[4] = biological target: T15, DHT03_variant_ABC-2 chain B; experiment: native MS; loop-connectivity variant of DHT03, chains of one ABC heterotrimer
T15 chain: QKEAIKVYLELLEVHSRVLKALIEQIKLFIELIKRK

[5] = biological target: T16, DHT03_variant_ABC-2 chain C; experiment: as above
T16 chain: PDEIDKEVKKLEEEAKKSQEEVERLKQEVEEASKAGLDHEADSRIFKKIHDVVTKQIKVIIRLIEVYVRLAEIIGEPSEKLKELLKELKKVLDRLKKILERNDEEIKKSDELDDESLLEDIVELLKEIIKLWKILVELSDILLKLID

[6] = biological target: T17, DHT03_variant_AB-3 chain B; experiment: native MS; loop-connectivity variant of DHT03, AB heterodimer
T17 chain: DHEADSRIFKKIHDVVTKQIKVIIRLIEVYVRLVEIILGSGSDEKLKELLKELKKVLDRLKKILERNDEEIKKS

DHT10 chain B = biological target: T18, DHT10 chain B; experiment: co-expression, IMAC, SEC, native MS; chains of one ABC heterotrimer
T18 chain: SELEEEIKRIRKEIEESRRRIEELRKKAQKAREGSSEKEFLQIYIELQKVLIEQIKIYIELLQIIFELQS
From the text: as §1, §2

DHT10 chain C = biological target: T19, DHT10 chain C; experiment: as above
T19 chain: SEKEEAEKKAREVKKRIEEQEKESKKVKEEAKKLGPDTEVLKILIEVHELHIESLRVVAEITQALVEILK
From the text: as §1, §2

[7] = biological target: T20, DHT03_variant_AB-2 chain B; experiment: native MS; loop-connectivity variant of DHT03, AB heterodimer
T20 chain: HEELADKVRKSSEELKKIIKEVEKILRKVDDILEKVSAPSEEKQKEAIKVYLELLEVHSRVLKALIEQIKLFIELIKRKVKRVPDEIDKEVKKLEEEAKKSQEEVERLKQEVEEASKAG

DHT08 chain B = biological target: T21, DHT08 chain B; experiment: co-expression, IMAC, SEC, native MS; chains of one ABC heterotrimer
T21 chain: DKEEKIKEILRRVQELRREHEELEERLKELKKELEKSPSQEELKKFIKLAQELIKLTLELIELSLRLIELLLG
From the text: as §1, §2

DHT08 chain C = biological target: T22, DHT08 chain C; experiment: as above
T22 chain: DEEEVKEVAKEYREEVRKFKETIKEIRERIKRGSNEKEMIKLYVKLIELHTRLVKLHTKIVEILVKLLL
From the text: as §1, §2

binding result (DHT04 chain C): binds | binding result (DHT04 chain B): binds
B1: DHT04 chain A (designed binder)
chain: PERELLELLIRLFNSQVKLFELQKELLELLRELLEENSEDNSRKLEDLLRKIQELLKENQDLLYTVEDVLRKLK

binding result [1]: binds | binding result (C4-DHT03-02 chain B): binds
B2: C4-DHT03-02 chain A (designed binder)
chain: MGNTHFIVVHGGEEARQLAETAVREISKKEGTEVRFEKKDGLLSIEVKNLSEELQRLIQELLQLLVRLAALLEAVRAVEEAIKRNPDNDEAVETAVRLARELKKVAELLQELAKKAGVPAILRGALLALEVAVRAVELAIKSNPDNDEAVETAVRLARELLKVAAELAERAAKTKDEELIKLAQRAIEVAQRAVELAKKSNKDNEEAEKTRLALEAMELALQIFRQLKNTELAREAIELATEAAKATDSEALKVVKLALKIVQQLPDTELAKEALELAKEAVKSTDSEALKVVELALEIVQQLPDTELAKEALKLAKEAVKSTDSEALKVVYLALRIVQQLPDTELAREALELAKEAVKSTDSEQLEVVRLALEIVQLAPDTRLARAALKLAKEAVKSTDQEELKKVKAILRVASEVLKLEEEAKKSQEEVERLKQEVEKASKAGLDHEGDSRIFKKIHDVVTKQIKVILRLIAVYAELVAIIG
notes: four copies in the A4B4C4 ring

binding result [2]: binds
B3: DHT03_variant_AB-1 chain A (designed binder)
chain: DESLLEDIVELLKEIIKLWKILVELSDILLKLIGGDDKVRKSSEELKKIIKEVEKILRKVDDILYKVSAPSEEKQKEAIKVYLELLEVHSRVLKALIEQIKLFIELIKR

binding result (DHT09 chain B): binds | binding result (DHT09 chain C): binds
B4: DHT09 chain A (designed binder)
chain: SEDEDLIRSVRVIQKSVEIILEMVKIIQELLKSTSEEELKELLKKLKRLIEKLEELLRQYEELLKKIKG

binding result (DHT07 chain B): binds | binding result (DHT07 chain C): binds
B5: DHT07 chain A (designed binder)
chain: SEKELIQLYVEAQELYAEAFELQVEIFKLLVKILSANSPKDEKEKIEKRIEEVQKRIKEIQERLQEIQKRLEEAG

binding result (DHT02 chain C): binds | binding result (DHT02 chain B): binds
B6: DHT02 chain A (designed binder)
chain: PDSDELRKLLKQLEDLLQQLKDLIDKAERHNGDNDVILELHEIYLRLLDIYQKLAKIILKLLR

binding result (DHT06 chain B): binds | binding result (DHT06 chain C): binds
B7: DHT06 chain A (designed binder)
chain: DEKELAKTNAEILKTLLELFEAESRLQEIILKLLERPDEKEEDELKRALERLKEALERLEEAIKRYEETLKRLL

binding result [3]: binds
B8: DHT03_variant_AB-4 chain A (designed binder)
chain: DHEADSRIFKKIHDVVTKQIKVIIRLIEVYVRLVEIILGSGSDEKLKELLKELKKVLDRLKKILERNDEEIKKSDELDDESLLEDIVELLKEIIKLWKILVELSDILLKLIGGDDKVRKSSEELKKIIKEVEKILRKVDDILYKVS

binding result [4]: binds | binding result [5]: binds
B9: DHT03_variant_ABC-2 chain A (designed binder)
chain: HEELADEVRKSSEELKKIIEEVEKILRKVDDILYKVG

binding result [6]: binds
B10: DHT03_variant_AB-3 chain A (designed binder)
chain: DESLLEDIVELLKEIIKLWKILVELSDILLKLIGGDDKVRKSSEELKKIIKEVEKILRKVDDILYKVSAPSEEKQKEAIKVYLELLEVHSRVLKALIEQIKLFIELIKRKHKRVPDEIDKEVKKLEEEAKKSQEEVERLKQEVEEASKAG

binding result (DHT10 chain B): binds | binding result (DHT10 chain C): binds
B11: DHT10 chain A (designed binder)
chain: SEEEELKKLQEEIKKLKKQVERLEKESKELEKRLEKSPSEEIAKELLRITAELVEISEELAEATKRLLEIAG

binding result [7]: binds
B12: DHT03_variant_AB-2 chain A (designed binder)
chain: DHEADSRIFKKIHDVVTKQIKVIIRLIEVYVRLVEIILGSGSDEKLKELLKELKKVLDRLKKILERNDEEIKKSDELDDESLLEDIVELLKEIIKLWKILVELSDILLKLID

binding result (DHT08 chain B): binds | binding result (DHT08 chain C): binds
B13: DHT08 chain A (designed binder)
chain: SKEEIEKELKKLKKELEELKREIEKSTKKLEEVRGSNSEKELIQIIKEQIEISERLLEISTRLLEIIIKLLG
